Reference: patent US20240360233A1 (University of Texas, published 2024)
One block for each binder: values may come before it.

Tests used:
[1] = target: T1, TSLPR on TSLPR-expressing REH cells (UniProt Q9HC73 23-371); experiment: cell-based or functional assay
T1 sequence (looked up): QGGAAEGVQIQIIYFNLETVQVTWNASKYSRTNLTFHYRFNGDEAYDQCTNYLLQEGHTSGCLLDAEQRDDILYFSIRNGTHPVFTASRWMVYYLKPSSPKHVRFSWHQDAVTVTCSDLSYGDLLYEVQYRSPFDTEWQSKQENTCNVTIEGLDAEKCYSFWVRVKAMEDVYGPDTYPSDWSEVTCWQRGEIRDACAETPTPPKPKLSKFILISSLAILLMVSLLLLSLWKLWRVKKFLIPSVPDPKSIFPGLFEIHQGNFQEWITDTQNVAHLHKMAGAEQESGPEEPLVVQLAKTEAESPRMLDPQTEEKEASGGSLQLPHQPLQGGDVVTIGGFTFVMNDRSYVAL

[2] = target: T2, his-tagged TSLPR (TSLPR-HIS) (UniProt Q9HC73 23-231, limits assumed); experiment: BLI (ForteBio AHQ sensor), antibody captured, TSLPR-HIS in solution
T2 construct: Soluble protein used in the ForteBio assay; not shown: His tag
T2 sequence (looked up): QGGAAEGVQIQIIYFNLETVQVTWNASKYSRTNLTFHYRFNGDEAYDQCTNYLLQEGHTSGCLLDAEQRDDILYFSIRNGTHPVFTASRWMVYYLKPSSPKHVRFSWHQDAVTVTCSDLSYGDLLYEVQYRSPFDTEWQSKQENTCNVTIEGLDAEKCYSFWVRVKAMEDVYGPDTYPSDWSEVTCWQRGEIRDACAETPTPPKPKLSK
Procedure: TSLPR antibody clones whose VH and VL sequences are disclosed in Tables 9 and 10 were bound to the AHQ sensor and his-tagged TSLPR (TSLPR-HIS) was provided in solution. […] The anti-TSLPR antibodies were serially diluted with an HBS-EP solution (GE Healthcare), and 100 μL of the solution was added to the flow path at a flow rate of […].

[3] = target: cynomolgus TSLPR (cynomolgus); experiment: SPR (BIAcore)
[4] = target: T3, human TSLPR protein (human, UniProt Q9HC73 23-231, limits assumed); experiment: SPR (BIAcore)
T3 sequence (looked up): T2 sequence (looked up)

EC50 (Promega ADCC reporter assay, RLU) [1]: 0.03 nM
Kd [2]: 4.45 nM
koff [2]: 0.000769 s⁻¹
kon [2]: 173000 M⁻¹ s⁻¹
B1: TSLPR antibody clone 1A9 (antibody, V domains shown)
VH: QVQLQESGPGLVKPSETLSLTCAVSGYSISSGYYWGWIRQPPGKGLEWIGRIYHSGTTSYNPSLKRRVTISVDTSKNQFSLKLSSVTATDTAVYYCARNWGGNWFDPWGQGTLVTVSS
VL: EIVLTQSPATLSLSPGERATLSCRASQSVSSYLAWYQQKPGQAPRLLIYDASNRATGIPARFSGSGSGTDFTLTISSLEPEDFAVYYCQQRSTWLTFGGGTKVDIKR
notes: also called TSLPR-4; TSLPR-004

EC50 (Promega ADCC reporter assay, RLU) [1]: 0.08 nM
Kd [3]: ~2.03 nM
Kd [4]: ~2.87 nM
Kd [2]: 2.82 nM
koff [2]: 0.00079 s⁻¹
kon [2]: 280000 M⁻¹ s⁻¹
B2: TSLPR antibody clone 1B7 (antibody, V domains shown)
VH: QVQLQESGPGLVKPSGTLSLTCAVSGGSISSSNWWSWVRQPPGKGLEWIGEIYHGGTTNNNPSLKSRVTISVDKSKSQFSLKLSSVTAADTAVYYCARHRYSNGLDYWGQGTLVTVSS
VL: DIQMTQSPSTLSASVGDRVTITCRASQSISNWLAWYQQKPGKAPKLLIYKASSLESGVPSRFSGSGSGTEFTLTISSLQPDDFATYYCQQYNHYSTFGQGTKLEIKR
notes: also called TSLPR-6; TSLPR-006
